Assay results reported in patent publication US20020103123A1.
One block for each binder: values may come before it. Ends that are not written are not given here.

Key:
[1] = target: T1, rat hypothalamic Y5 receptor (rat)
T1 sequence: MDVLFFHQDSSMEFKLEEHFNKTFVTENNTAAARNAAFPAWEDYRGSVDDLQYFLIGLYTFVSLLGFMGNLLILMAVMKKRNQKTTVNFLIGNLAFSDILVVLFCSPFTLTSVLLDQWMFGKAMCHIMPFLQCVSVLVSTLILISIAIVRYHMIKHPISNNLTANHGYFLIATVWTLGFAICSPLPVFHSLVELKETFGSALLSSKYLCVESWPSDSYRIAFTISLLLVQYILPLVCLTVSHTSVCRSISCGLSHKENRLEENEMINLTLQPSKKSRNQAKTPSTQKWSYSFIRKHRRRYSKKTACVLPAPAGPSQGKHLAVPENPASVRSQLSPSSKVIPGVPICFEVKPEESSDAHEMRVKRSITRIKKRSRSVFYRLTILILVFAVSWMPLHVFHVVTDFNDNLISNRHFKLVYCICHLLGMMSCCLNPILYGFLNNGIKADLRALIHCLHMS

[2] = target: T1, rat hypothalamic Y5 receptor (rat); remark: listed apart in the source
[3] = target: T2, rat Y2 receptor (rat), Q9ERC0; assay: 125I-PYY displacement, COS-7 membranes; conditions: remark: other sources report otherwise
T2 chain: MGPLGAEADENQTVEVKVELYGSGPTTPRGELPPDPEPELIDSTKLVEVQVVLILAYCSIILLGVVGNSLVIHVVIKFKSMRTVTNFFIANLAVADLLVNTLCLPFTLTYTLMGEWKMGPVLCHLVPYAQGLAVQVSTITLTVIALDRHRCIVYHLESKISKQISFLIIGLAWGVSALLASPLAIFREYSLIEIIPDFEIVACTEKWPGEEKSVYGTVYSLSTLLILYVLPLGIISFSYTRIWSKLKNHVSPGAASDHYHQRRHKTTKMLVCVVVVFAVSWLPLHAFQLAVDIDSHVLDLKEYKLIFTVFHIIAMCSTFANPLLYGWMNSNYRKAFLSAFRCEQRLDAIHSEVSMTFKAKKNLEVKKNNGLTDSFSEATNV

[4] = target: human hippocampal Y5 receptor (human)
Sequence of human hippocampal Y5 receptor (human) (chain, as listed by the source): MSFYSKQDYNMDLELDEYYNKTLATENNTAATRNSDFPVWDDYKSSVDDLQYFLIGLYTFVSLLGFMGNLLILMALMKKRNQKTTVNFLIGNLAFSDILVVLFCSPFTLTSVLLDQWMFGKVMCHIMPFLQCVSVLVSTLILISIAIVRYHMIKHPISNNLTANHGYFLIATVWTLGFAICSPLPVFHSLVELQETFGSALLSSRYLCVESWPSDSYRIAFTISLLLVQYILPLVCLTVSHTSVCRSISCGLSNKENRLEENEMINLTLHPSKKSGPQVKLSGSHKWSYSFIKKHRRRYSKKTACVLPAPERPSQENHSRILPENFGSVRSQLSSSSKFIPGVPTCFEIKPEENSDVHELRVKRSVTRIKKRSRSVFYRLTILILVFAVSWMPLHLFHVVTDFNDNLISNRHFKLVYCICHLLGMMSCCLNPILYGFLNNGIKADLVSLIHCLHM

[5] = target: T3, rat Y4 receptor (rat), Q63447; assay: 125I-PYY displacement, COS-7 membranes; conditions: remark: other sources report otherwise
T3 chain: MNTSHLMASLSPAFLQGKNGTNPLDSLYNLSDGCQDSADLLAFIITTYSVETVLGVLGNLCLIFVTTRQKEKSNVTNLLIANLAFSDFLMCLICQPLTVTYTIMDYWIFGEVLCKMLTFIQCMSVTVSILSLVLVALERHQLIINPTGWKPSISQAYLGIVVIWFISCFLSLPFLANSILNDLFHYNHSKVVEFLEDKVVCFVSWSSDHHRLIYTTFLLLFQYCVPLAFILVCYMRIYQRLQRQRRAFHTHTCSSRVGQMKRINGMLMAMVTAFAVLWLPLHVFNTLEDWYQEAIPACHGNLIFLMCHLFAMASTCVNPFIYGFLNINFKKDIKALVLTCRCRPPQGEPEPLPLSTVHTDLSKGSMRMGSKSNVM

B2: FLRF-amide (peptide)
peptide: FLRF-NH2
- maximal suppression of cAMP relative to that produced by human NPY [2]: 42%
- inhibition of forskolin-stimulated cAMP accumulation, EC50 [1]: 13000 nM

B4: bovine PP (peptide)
peptide: APLEPEYPGDNATPEQMAQYAAELRRYINMLTRPRY
- inhibition of forskolin-stimulated cAMP accumulation, EC50 [4]: 4 nM
- inhibition of forskolin-stimulated cAMP accumulation, EC50 [1]: 5.7 nM

Second part, the binder after the results:

- inhibition of forskolin-stimulated cAMP accumulation, EC50 [1]: 130 nM
B1: rat PP (peptide)
peptide: APLEPMYPGDYATHEQRAQYETQLRRYINTLTRPRY

- Ki [3]: > 830 nM
B3: porcine NPY26-36, P01304 (peptide)
peptide: HYINLITRQRY
modifications: ends and bridges not checked

- Ki [5]: 140 nM
B5: porcine NPY13-36, P01304 (peptide)
peptide: PAEDLARYYSALRHYINLITRQRY
modifications: ends and bridges not checked
